Test results reported in PMC5840378, “Cytochrome c speeds up caspase cascade activation by blocking 14-3-3ε-dependent Apaf-1 inhibition” (Cell Death & Disease, 2018).
Numbering of substitutions follows the chain as printed. Numbers in names are those of the source. No end group written: not given here.

T1: 14-3-3ε full length (14-3-3ε FL), recombinant (UniProt P62258 1-255)
T1 construct: 14-3-3ε (14-3-3 protein epsilon), full length, cloned NdeI-XhoI into pET-28a; Homodimer by ultracentrifugation and light scattering; The printed cloning primers seem to add a Met before Met1 and a Glu after the last residue; also called 14-3-3ε FL WT; source: E. coli BL21 (DE3), purified (Ni Sepharose)
T1 sequence (looked up): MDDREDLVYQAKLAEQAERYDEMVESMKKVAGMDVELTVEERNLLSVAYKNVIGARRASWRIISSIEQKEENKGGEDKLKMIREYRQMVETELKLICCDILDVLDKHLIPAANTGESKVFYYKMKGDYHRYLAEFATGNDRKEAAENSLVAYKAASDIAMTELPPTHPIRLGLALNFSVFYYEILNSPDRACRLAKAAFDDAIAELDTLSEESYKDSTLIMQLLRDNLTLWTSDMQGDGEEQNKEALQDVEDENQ

B1: cytochrome c (Cc), recombinant (natural protein)
chain: not shown
modifications: heme group; 15N-labelled for the 2D NMR titrations
notes: Met80 is M81 in P99999); Reduced with sodium ascorbate in the NMR experiments; also called hemeprotein; reduced Cc; source: E. coli BL21 (DE3), purified (ionic chromatography, carboxy-methylcellulose)
B2: fluorinated 14-3-3ε_(234-255) peptide (Lys244 covalently bound to 5-fluorindole) (peptide, UniProt P62258 234-255, looked up)
peptide: Ac-DMQGDGEEQNK(5‑fluorindole)EALQDVEDENQ
notes: 14-3-3ε, C-terminal tail, residues 234-255; source: acetylated 14-3-3ε_(234-255) peptide conjugated with 5-fluoroindole (formaldehyde, 24 h, 30 °C), dialyzed
B3: 14-3-3ε C-terminal peptide (14-3-3ε_(234-255)) (peptide, UniProt P62258 234-255, looked up)
peptide: DMQGDGEEQNKEALQDVEDENQ
notes: 14-3-3ε, C-terminal tail, residues 234-255; also called non-acetylated peptide; C-terminal tail of 14-3-3ε; source: bought: Genosphere Biotechnologies (France)
B4: 14-3-3ε FL D21K (natural protein, UniProt P62258 1-255, looked up)
chain: T1 sequence (looked up) with D21K
notes: 14-3-3ε full length with D21K; source: E. coli BL21 (DE3), purified (Ni Sepharose); mutant obtained from Mutagenex Inc
B5: 14-3-3ε FL S187D (natural protein, UniProt P62258 1-255, looked up)
chain: T1 sequence (looked up) with S187D
notes: 14-3-3ε full length with S187D; source: E. coli BL21 (DE3), purified (Ni Sepharose); mutant obtained from Mutagenex Inc
B6: 14-3-3ε FL E92K (natural protein, UniProt P62258 1-255, looked up)
chain: T1 sequence (looked up) with E92K
notes: 14-3-3ε full length with E92K; source: E. coli BL21 (DE3), purified (Ni Sepharose); mutant obtained from Mutagenex Inc
B7: 14-3-3ε FL D99K (natural protein, UniProt P62258 1-255, looked up)
chain: T1 sequence (looked up) with D99K
notes: 14-3-3ε full length with D99K; source: E. coli BL21 (DE3), purified (Ni Sepharose); mutant obtained from Mutagenex Inc
B8: 14-3-3ε FL K50E (natural protein, UniProt P62258 1-255, looked up)
chain: T1 sequence (looked up) with K50E
notes: 14-3-3ε full length with K50E; source: E. coli BL21 (DE3), purified (Ni Sepharose); mutant obtained from Mutagenex Inc
B9: 14-3-3ε FL S59E (natural protein, UniProt P62258 1-255, looked up)
chain: T1 sequence (looked up) with S59E
notes: 14-3-3ε full length with S59E; source: E. coli BL21 (DE3), purified (Ni Sepharose); mutant obtained from Mutagenex Inc
B10: acetylated 14-3-3ε_(234-255) peptide (peptide, UniProt P62258 234-255, looked up)
peptide: Ac-DMQGDGEEQNKEALQDVEDENQ
notes: 14-3-3ε, C-terminal tail, residues 234-255, N-terminally acetylated; also called acetylated peptide

How the values were obtained:
14-3-3ε FL E92K = molecular target: B6; test: ITC; Auto-ITC200, 25 °C; 2-μL injections of 300 μM Cc into the cell with 20 μM 14-3-3ε species or peptide; 10 mM sodium phosphate pH 7.4; details: both partners purified
[1] = molecular target: T1, 14-3-3ε full length (14-3-3ε FL), …; test: as above; details: both partners purified
14-3-3ε FL D99K = molecular target: B7; test: as above; details: both partners purified
14-3-3ε FL S187D = molecular target: B5; test: as above; details: both partners purified
14-3-3ε FL S59E = molecular target: B9; test: as above; details: both partners purified
14-3-3ε FL D21K = molecular target: B4; test: as above; details: both partners purified
14-3-3ε FL K50E = molecular target: B8; test: as above; details: both partners purified
[2] = molecular target: B3; test: as above; details: both partners purified
[3] = molecular target: B1; test: NMR titration; 1D 19F NMR of the fluorinated 14-3-3ε_(234-255) peptide titrated with Cc or BSA; 25 °C; 600 MHz; 10 mM sodium phosphate pH 6.3; details: both partners purified
[4] = molecular target: B1; test: NMR titration; 50 μM reduced 15N-labelled Cc titrated with unlabeled 14-3-3ε FL (700 MHz) or 14-3-3ε_(234-255) peptide (600 MHz); 1D 1H and 2D [1H,15N] HSQC; 25 °C; 5 mM sodium phosphate pH 6.3, 0.1 M sodium ascorbate; CSP curves fitted with a one-site model; details: both partners purified
[5] = molecular target: B1; test: ITC; Auto-ITC200, 25 °C; 2-μL injections of 300 μM Cc into the cell with 20 μM 14-3-3ε species or peptide; 10 mM sodium phosphate pH 7.4; details: both partners purified
[6] = molecular target: the molecule itself; test: AUC + other: dynamic light scattering; sedimentation velocity, 20 °C, 45,000 r.p.m., 37 μM, 5 mM sodium phosphate pH 6.3; DLS at 0.1 mg/mL, 25 °C, same buffer

B1
stoichiometry N (14-3-3ε FL E92K): 1
Kd [1]: 2.3 µM
stoichiometry N [1]: 2 Cc per 14-3-3ε FL homodimer
binding result (14-3-3ε FL D99K): binds
binding result (14-3-3ε FL S187D): binds
stoichiometry N (14-3-3ε FL S59E): 1
stoichiometry N (14-3-3ε FL D21K): 1
stoichiometry N (14-3-3ε FL K50E): 1
stoichiometry N [2]: 1

B2
binding result [3]: binds

B3
Kd [4]: 49 µM
Kd [5]: 16 µM

B4
stoichiometry N [6]: 2

B5
stoichiometry N [6]: 2

B6
stoichiometry N [6]: 2

B7
stoichiometry N [6]: 2

B8
stoichiometry N [6]: 2

B9
stoichiometry N [6]: 2

B10
binding result [5]: binds
